{"source": "paper PMC6927765", "molecules": {"B1": {"name": "Mouse Fc gamma receptor FCGR1 (receptor)", "chain": "EVVNATKAVITLQPPWVSIFQKENVTLWCEGPHLPGDSSTQWFINGTAVQISTPSYSIPEASFQDSGEYRCQIGSSMPSDPVQLQIHNDWLLLQASRRVLTEGEPLALRCHGWKNKLVYNVVFYRNGKSFQFSSDSEVAILKTNLSHSGIYHCSGTGRHRYTSAGVSITVKELFTTPVLRASVSSPFPEGSLVTLNCETNLLLQRPGLQLHFSFYVGSKILEYRNTSSEYHIARAEREDAGFYWCEVATEDSSVLKRSPELELQVLGPQSSAPVWFHILFYLSVGIMFSLNTVLYVKIHRLQREKKYNLEVPLVSEQGKKANSFQQVRSDGVYEEVTATASQTTPKEAPDGPRSSVGDCGPEQPEPLPPSDSTGAQTSQS"}, "B2": {"name": "Mouse Fc gamma receptor FCGR3 (receptor)", "chain": "ALPKAVVKLDPPWIQVLKEDMVTLMCEGTHNPGNSSTQWFHNGRSIRSQVQASYTFKATVNDSGEYRCQMEQTRLSDPVDLGVISDWLLLQTPQRVFLEGETITLRCHSWRNKLLNRISFFHNEKSVRYHHYKSNFSIPKANHSHSGDYYCKGSLGSTQHQSKPVTITVQDPATTSSISLVWYHTAFSLVMCLLFAVDTGLYFYVRRNLQTPREYWRKSLSIRKHQAPQDK"}, "B3": {"name": "Mouse Fc gamma receptor FCGR4 (receptor)", "chain": "GLQKAVVNLDPKWVRVLEEDSVTLRCQGTFSPEDNSIKWFHNESLIPHQDANYVIQSARVKDSGMYRCQTALSTISDPVQLEVHMGWLLLQTTKWLFQEGDPIHLRCHSWQNRPVRKVTYLQNGKGKKYFHENSELLIPKATHNDSGSYFCRGLIGHNNKSSASFRISLGDPGSPSMFPPWHQITFCLLIGLLFAIDTVLYFSVRRGLQSPVADYEEPKIQWSKEPQDK"}}, "experiment_in_all_cases": "SPR", "key": {"[1]": {"target": "CD3/CD20 mG2aH4 bispecific antibody (not stated | mouse)"}, "[2]": {"target": "CD3 mG2a (not stated | mouse)"}, "[3]": {"target": "CD3 mG2a D265A (not stated | mouse)"}, "[4]": {"target": "CD3/CD20 mG1KD D265A bispecific antibody (not stated | mouse)"}, "[5]": {"target": "CD3 mG1 D265A (not stated | mouse)"}, "[6]": {"target": "CD3/CD20 mG2aH4 bispecific antibody (not stated | mouse)", "remark": "listed apart in the source"}, "[7]": {"target": "CD3 mG2a (not stated | mouse)", "remark": "listed apart in the source"}}, "note": "Where two headings read alike, the source gives them in different places.", "data": [{"molecule": "Mouse Fc gamma receptor FCGR2 (from UniProt P08101 30-330)", "values": [{"measurement": "Kd", "setting": "[1]", "value": 1990, "unit": "nM"}, {"measurement": "Kd", "setting": "[2]", "value": 1570, "unit": "nM"}]}, {"molecule": "Mouse FcRn (from UniProt Q61559 22-365; P01887 21-119) (receptor)", "values": [{"measurement": "Kd", "setting": "[3]", "value": 310, "unit": "nM"}, {"measurement": "Kd", "setting": "[4]", "value": 670, "unit": "nM"}, {"measurement": "Kd", "setting": "[5]", "value": 640, "unit": "nM"}, {"measurement": "Kd", "setting": "[2]", "value": 320, "unit": "nM"}]}, {"molecule": "B1", "values": [{"measurement": "Kd", "setting": "[6]", "value": 33, "unit": "nM"}, {"measurement": "Kd", "setting": "[7]", "value": 21, "unit": "nM"}]}, {"molecule": "B2", "values": [{"measurement": "Kd", "setting": "[6]", "value": 1030, "unit": "nM"}, {"measurement": "Kd", "setting": "[7]", "value": 625, "unit": "nM"}]}, {"molecule": "B3", "values": [{"measurement": "Kd", "setting": "[6]", "value": 39, "unit": "nM"}, {"measurement": "Kd", "setting": "[7]", "value": 18, "unit": "nM"}]}]}
